Data: patent publication US20180051287A1 (VITRISA THERAPEUTICS, published 2018)

Biological target: human complement Factor D present in C1q-depleted human serum (human, UniProt P00746 26-253)
Assay: cell-based or functional assay

Chain of human complement Factor D present in C1q-depleted human serum (P00746 26-253 limits assumed): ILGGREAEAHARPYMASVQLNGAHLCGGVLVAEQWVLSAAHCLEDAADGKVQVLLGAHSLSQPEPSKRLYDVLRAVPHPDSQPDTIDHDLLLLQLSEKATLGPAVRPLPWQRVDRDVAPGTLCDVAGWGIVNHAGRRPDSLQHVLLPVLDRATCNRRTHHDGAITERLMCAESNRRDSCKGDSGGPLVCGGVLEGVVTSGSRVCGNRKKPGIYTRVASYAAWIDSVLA

B1: anti-fD Fab with an amino acid sequence of heavy chain variable region according to SEQ ID NO: 71 and light chain variable region according to SEQ ID NO: 72 (Fab)
heavy: EVQLVQSGPELKKPGASVKVSCKASGYTFTNYGMNWVRQAPGQGLEWMGWINTYTGETTYADDFKGRFVFSLDTSVSTAYLQISSLKAEDTAVYYCERGGVNNWGQGTLVTVSSASTKGPSVFPLAPSSKSTSGGTAALGCLVKDYFPEPVTVSWNSGALTSGVHTFPAVLQSSGLYSLSSVVTVPSSSLGTQTYICNVNHKPSNTKVDKKVEPKSCDKTHT
light: DIQVTQSPSSLSASVGDRVTITCITSTDIDDDMNWYQQKPGKVPKLLISGGNTLRPGVPSRFSGSGSGTDFTLTISSLQPEDVATYYCLQSDSLPYTFGQGTKVEIKRTVAAPSVFIFPPSDEQLKSGTASVVCLLNNFYPREAKVQWKVDNALQSGNSQESVTEQDSKDSTYSLSSTLTLSKADYEKHKVYACEVTHQGLSSPVTKSFNRGEC
  IC50 inhibiting alternative complement in human serum (fD-dependent lysis of rabbit red blood cells): 3.3 nM
